Test results from patent EP1364964A1, “Radiolabeled annexingalactose conjugates” (NEORX CORPORATION, priority 1994, dated 1995).

Tests used:
[1] = tested on: atrial thrombi and injured left atrium; parameters: species or system Yorkshire swine; conditions: in vivo
Procedure: • A. Animal Preparation - LA Vascular Thrombi. […] Continuous electrocardiographic monitoring was instituted using alligator clip electrodes. […] The incision was held open by a thoracotomy retractor. […] The cross-clamp was removed 10 minutes later. […] The intravenous line was then flushed with saline. […] Res. Commun. 80: 849-57, 1978). […] Image acquisition was performed as described below. […] A final blood sample was taken for well counting. […] Open Chest Sham. […] Closed Chest Sham. In seven animals, an ear intravenous line was established. No thoracotomy was performed. […] Ovalbumin. […] Indium Platelets. […] J. Cardiol. […] Non-specific Tc-Labeled Antibody. […] Imaging. […] The cobalt marker was then removed. […] These were followed by a 10 minute tomographic acquisition. […] Each image was scored as positive, equivocal or negative. […] Each vial was counted for 1 minute.
For the injured tissues and thrombi, multiple specimens were usually taken from the same animal. In those cases, the maximum ratio for any one specimen is reported, as well as the average of all specimens taken. The maximum for each animal was averaged across all animals and is reported as the Maximum Anx-V Ratio.

[2] = in vivo
Procedure: • A. Animal Preparation - LA Vascular Thrombi. Fasting 25-30 kg Yorkshire swine were sedated with intramuscular Telazol (5-10 mg/kg) (commercially available from AVECO Co.) and commercially available Atropine (1 mg, Elkins-Sinn, Inc., Cherry Hill, NJ). Surital (200 mg) (commercially available from Abbott Laboratories) anaesthesia was administered intravenously. The animals were intubated and given inhalation anaesthesia of 1.5-2% halothane (commercially available from Abbott Laboratories) and O2 sufficient to obtain a deep level of anesthesia and physiologic arterial blood gases. Continuous electrocardiographic monitoring was instituted using alligator clip electrodes. A cut down in the neck region was conducted, and an 8 french catheter (USCI Co, Billerica, MA) was placed in the right common carotid artery for blood pressure and arterial blood gas monitoring as well as for blood sampling. The swine were placed in a right lateral decubitus position, and a lateral thoracotomy was performed to expose the heart. The incision was held open by a thoracotomy retractor. The pericardium was opened, and the left atrial appendage was isolated from the left atrium by a vascular cross- clamp. Rubber tipped forceps were used to gently crush the appendage. Five minutes later, ricinoleate (1 mg, ICN Pharmaceuticals, Costa Mesa, CA) and thrombin (50 mg, Johnson and Johnson Co., Arlington, Texas) were injected into the LAA (left atrial appendage) using a 27 Ga needle. The cross-clamp was removed 10 minutes later. One hour after the crush injury, Tc-99m-annexin V, prepared in accordance with Example I above, was administered as an intravenous bolus dose in an ear vein. The intravenous line was then flushed with saline. In 7 animals, I-125 labeled ovalbumin was administered as a non-specific control preparable, for example, by the procedure described by Fraker et al., Biochem. Biophys. Res. Commun. 80: 849-57, 1978). Briefly, I-125-radiolabeled ovalbumin was prepared by the Iodogen method, employing 600 µg ovalbumin (Sigma Chemical Co., St. Louis, Missouri) and NaI-125 (2mCi, 0.92 nmol). Image acquisition was performed as described below. At the end of the experimental procedure (generally about 150 minutes), the animals were sacrificed by an intravenous bolus dose of 80 mEq of KCl while the animals were still under general anaesthetic. A final blood sample was taken for well counting. The heart was rapidly excised, washed free of blood and dissected into samples for well counting. Additional samples of carotid artery, lung, liver, spleen, muscle and kidney were obtained in some animals. • B. Controls. Five different types of controls were used: open chest sham; closed chest sham; ovalbumin; indium platelets; and non-specific Tc-99m-labeled antibody. • 1. Open Chest Sham. In three animals, the heart was exposed as above, but the left atrium was not isolated, crushed or injected with ricinoleate/thrombin. Marker images with a cobalt marker were performed as described below, and the Tc-99m-annexin V was injected 30-60 minutes after LAA exposure. Imaging and sample acquisition were identical to that described in A above. • 2. Closed Chest Sham. In seven animals, an ear intravenous line was established. No thoracotomy was performed. Sedation and anesthesia were identical to that described in A above. The Tc-99m-annexin V (+/other control radionuclides, such as I-125 ovalbumin or In-111-platelets) was administered and image acquisition was performed. • 3. Ovalbumin. I-125 ovalbumin was administered in 7 animals as a negative control protein. […] Indium Platelets. In-111 platelet labeling was performed in 7 animals as a positive well counting label. In-111 radiolabeled platelets were prepared in accordance with the procedure described by Stratton et al., Am. J. Cardiol. 47: 874, 1981 and Stratton et al., Circulation 69: 561, 1984. Imaging was not attempted because of the long serum half-life of the In-111-platelets. • 5. Non-specific Tc-Labeled Antibody. […]

[3] = tested on: freshly isolated human platelets; assay: competition assay: inhibition of binding of unmodified 125I radiolabeled annexin V to platelets
Procedure: The ability of galactose-modified annexin V to bind to activated platelets was assessed by determining its ability to inhibit the binding of unmodified, ^125I radiolabeled annexin V to freshly isolated human platelets, following the method of Thiagarajan and Tait J. Biol. Chem. 265: 17240-43, 1990.

## Tc-99m-annexin V: annexin V radiolabeled with Tc-99m by a diamide dimercaptide N2S2 chelate (Example I)
[1]
  highest non-target localization: kidney
[2]
  %ID/g a: 0.0389 %ID/g
  %ID/g b: 0.0300 %ID/g
  ID/g cleared in the slower b phase: 43%
  a + b: 0.0689
  t1/2 a: 9.6 min
  t1/2 b: 46 min

B1: 1.1: galactose-modified annexin V, substitution ratio 1.1:1 (offering ratio 75:1) (conjugate, UniProt P08758 2-320, looked up)
Annexin A5: AQVLRGTVTDFPGFDERADAETLRKAMKGLGTDEESILTLLTSRSNAQRQEISAAFKTLFGRDLLDDLKSELTGKFEKLIVALMKPSRLYDAYELKHALKGAGTNEKVLTEIIASRTPEELRAIKQVYEEEYGSSLEDDVVGDTSGYYQRMLVVLLQANRDPDAGIDEAQVEQDAQALFQAGELKWGTDEEKFITIFGTRSVSHLRKVFDKYMTISGFQIEETIDRETSGNLEQLLLAVVKSIRSIPAYLAETLYYAMKGAGTDDHTLIRVMVSRSEIDLFNIRKEFRKNFATSLYSMIKGDTSGDYKKALLLLCGEDD
modifications: galactose-modified
[3]; absolute value (left column), inhibition of 125I annexin V binding to human platelets
  Competition (% of control): 21.4 % of control
[3]; value normalized to 100% for unmodified annexin V (right column)
  Competition (% of control): 28.7 % of control
